In patent US8304236B2, “Modified biotin-binding protein” (Japan Tobacco Inc., priority 2008, dated 2012):
Entries after “also recorded” stand apart in the source; their conditions may differ.

Columns and labels:
[1] = Isoelectric focusing electrophoresis (pI observed); type: physicochemical; conditions: pH 3 to 10 gel
Description: The isoelectric point of each low-pI TM2 was measured by isoelectric focusing electrophoresis using an XCell SureLock Mini-Cell (Invitrogen). In accordance with the instruction, each low-pI TM2 (500 ng) and an IEF sample buffer (pH 3 to 10 (2×), Invitrogen) were mixed and were added to a polyacrylamide gel (pH 3 to 10, IEF Gel, Invitrogen) at a pH ranging from 3 to 10, followed by electrophoresis at a variable voltage of 100 V for 1 hour, 200 V for 1 hour, and 500 V for 45 minutes in this order.
After the electrophoresis, the gel was shaken in a blotting buffer (0.7% acetic acid) for 10 minutes and then was transferred onto a PVDF membrane at 10 V for 1 hour using an XCell ll Blot Module (Invitrogen). The PVDF membrane was subjected to reaction with anti-TM2 rabbit antibody (PCT/W2006/326260) serving as a primary antibody and with alkaline phosphate-labeled anti-rabbit IgG antibody (BIO-RAD) serving as a secondary antibody, followed by detection of bands with Alkaline Phosphatase Substrate Kit II
The isoelectric point of the high-affinity TM2 was measured by isoelectric focusing electrophoresis using an XCell SureLock Mini-Cell (Invitrogen). […] The electric point of TM2 D40N having replacement of the […] amino acid was higher than that of the wild type TM2 also in the isoelectric focusing electrophoresis.
The isoelectric point of HALU TM2 was measured by isoelectric focusing electrophoresis using an XCell SureLock Mini-Cell (Invitrogen). In accordance with the instruction, bands of each HALU TM2 (4 μg) were detected by CBB staining. […] The observed isoelectric point of TM2 D40N was 9.7, and was reduced to 8.9 after introduction of mutation of R104E and was reduced to 7.3 to 7.5 after further introduction of mutation of K141E.

human serum protein = assay: Non-specific adsorption of low-pI TM2 to human serum protein-immobilized magnetic beads; type: binding; conditions: for decrease of adsorption to human serum protein compared to the wild type TM2 / non-specific binding to human serum protein compared to TM2: FIG. 1; for non-specific binding and adsorption, % of that of the wild type TM2: summary of Example 1, paragraphs 1-9) and 1-11); for Non-specific binding of serum protein (%): wild type TM2 = 100
Description: In this embodiment, non-specific binding to human serum was investigated as non-specific adsorption of low-pI TM2 to serum protein-immobilized magnetic beads. Specifically, in order to investigate the non-specific binding of low-pI TM2, the amount of low-pI TM2 adsorbed to magnetic beads to which human serum protein was covalently bonded was measured. TM2 K26A, TM2 K73Q, TM2 R104E, TM2 K141E, and TM2 R104EK141E, which were highly expressed in Escherichia coli, were used as the low-pI TM2 to be investigated.
Human serum protein and magnetic beads were bound to each other as follows. Magnetic beads having surfaces coated with carboxyl groups (Dynabeads M-270 Carboxylic Acid, Dynal, 210 μL) were washed with 0.01 N sodium hydroxide (210 μL) for 10 minutes and then with ultrapure water (210 μL) for 10 minutes three times. To the washed magnetic beads, 1-ethyl-3-(3-dimethylaminopropyl)carbodiimide hydrochloride (EDC, PIERCE) dissolved in cooled ultrapure water was added into a final concentration of 0.2 M, and the mixture was shaken at room temperature for 30 minutes. Then, the magnetic beads were washed with cooled ultrapure water (210 μL) and then with 50 mM MES buffer (pH 5.0, 210 μL).
To the magnetic beads, 1 mg/mL human serum protein (CHEMICON, 210 μL) dialyzed with 50 mM MES buffer (pH 5.0) was added. The mixture was shaken at room temperature for 30 minutes to covalently bind the human serum protein to the magnetic beads. The magnetic beads were collected with a magnet to remove the supernatant. The unreacted active groups on the beads were eliminated with 50 mM tris buffer (pH 7.0, 210 μL), and then the magnetic beads were blocked with a PBS buffer (420 μL) containing 0.5% BSA and 0.1% Tween 20. The magnetic beads were suspended in a PBS buffer (210 μL) to obtain human serum protein-immobilized magnetic beads.
The magnetic beads (7 μL) and 0.56 μg/mL of each low-pI TM2 (100 μL) were mixed for reaction at room temperature for 1 hour. The magnetic beads were collected with a magnetic, and the supernatant was removed. After washing with 20 mM potassium phosphate buffer (500 μL) containing 500 mM sodium chloride, the magnetic beads were mixed with 20 μL of 2×SDS sample buffer (250 mM Tris-HCl, pH 6.8, 20% 2-mercaptoethanol, 20% SDS, 20% glycerol), followed by heating at 95° C. for 20 minutes to dissociate the low-pI TM2 from the magnetic beads.
This sample was subjected to SDS-PAGE and then western blotting analysis to determine the amount of the low-pI TM2. Anti-tamavidin 2 rabbit antibody and alkaline phosphatase-labeled anti-rabbit IgG goat antibody were used as the primary antibody and the secondary antibody, respectively. The bands were detected with Alkaline Phosphatase Substrate Kit II <VECTOR Black> (VECTRO) and were quantified with Las-3000 (FUJIFILM).

[2] = Biotin-binding test (Biacore 3000, biotin-LC-BSA immobilized)
Description: High-purity BSA (Sigma, 2 mg) and NHS-LC-biotin (Pierce, 1 mg) were dissolved in 50 mM sodium borate (pH 8.0, 1 mL) and were incubated at 4° C. for 2 hours. The solution was put into a dialysis tube (MWCO 6-8,000) and was dialyzed with 50 mM sodium carbonate (pH 6.7) at 4° C. overnight. The resulting biotin-LC-BSA conjugate (MW: 67 kDa, 30 μM) was used as a ligand for a Biacore (registered trademark) biosensor.
Biotin-LC-BSA and BSA serving as a negative control were immobilized on CM5 sensor chips by amine coupling method. The amount for immobilization was adjusted to about 200 RU. The chips to which BSA was immobilized were disposed in flow cells 1 and 3, while the chips to which biotin-LC-BSA was immobilized were disposed in flow cells 2 and 4.
Accordingly, seven step measurement (3.125, 6.25, […], 25, 50, 100, and 200 nM) was conducted from the lowest concentration, without recycling steps. The data of BSA as reference was deducted from the data of BSA-LC-biotin. The measurement was performed at 25° C. The resulting sensorgrams were subjected to reaction kinetics analysis using analysis software BIAevaluation ver. 4.1 with a 1:1 binding model to calculate the binding rate constant (ka) and the dissociation rate constant (kd). The dissociation constant (KD) was determined from kd/ka. In the case where no recycling step is employed, the Rmax (maximum amount of binding analyte) decreases at each measurement. Accordingly, in the analysis, the Rmax was calculated by conducting local fitting for each concentration, and only the data of analyte concentrations that were approximated to the 1:1 binding model was employed.
TM2 and HALU TM2 used as analytes were prepared by purification with 2-iminobiotin agarose in accordance with a common method and dialysis with 20MM KPi (pH 7) overnight. The analytes were each adjusted to about 50 μg/mL in 10 mM acetate buffer (pH 5, Biacore).
The immobilization of the ligand and measurement and analysis of specific interaction with the analytes were conducted as in paragraph 2-7-2).

| Molecule | pI observed [1] | decrease of adsorption to human serum protein compared to the wild type TM2 (human serum protein) [%] | non-specific binding to human serum protein compared to TM2 (human serum protein) | non-specific binding and adsorption, % of that of the wild type TM2 (human serum protein) | Non-specific binding of serum protein (%) (human serum protein) | biotin-binding ability (affinity) compared to the wild type TM2 [2] | dissociation from biotin-LC-BSA ([2]; dissociation monitored for 60 minutes) |
| --- | --- | --- | --- | --- | --- | --- | --- |
| TM2 K26A: TM2 mutant in which lysine at position 26 was replaced with alanine; SEQ ID NO: 4 (protein, Synthetic TM2 K26A) MSDVQSSLTGTWYNELNSKMELTANADGTLTGKYLSKVGDVYVPYPLSGRYNLQPPAGQGVALGWAVSWENSKIHSATTWSGQFFSESSPVILTQWLLSSSTARGDVWESTLVGNDSFTKTAPTEQQIAHAQLHCRAPRLK | 7.3 to 7.6 | 30 | significantly low | about 60% | 68 |  |  |
| TM2 D40N: TM2 mutant in which aspartic acid at position 40 was replaced with asparagine; SEQ ID NO: 20 (protein, Synthetic TM2 D40N) MSDVQSSLTGTWYNELNSKMELTANKDGTLTGKYLSKVGNVYVPYPLSGRYNLQPPAGQGVALGWAVSWENSKIHSATTWSGQFFSESSPVILTQWLLSSSTARGDVWESTLVGNDSFTKTAPTEQQIAHAQLHCRAPRLK | 9.7 |  |  |  |  | increased; also recorded: enhanced | not dissociated |
| TM2 K33TK37AR104E: TM2 mutant, lysine 33 to threonine, lysine 37 to alanine, arginine 104 to glutamic acid; SEQ ID NO: 14 (protein, Synthetic TM2 K33TK37AR104E) MSDVQSSLTGTWYNELNSKMELTANKDGTLTGTYLSAVGDVYVPYPLSGRYNLQPPAGQGVALGWAVSWENSKIHSATTWSGQFFSESSPVILTQWLLSSSTAEGDVWESTLVGNDSFTKTAPTEQQIAHAQLHCRAPRLK | 5.9 to 6.0 |  |  |  |  |  |  |
| TM2 K33TK37A: TM2 mutant, lysine 33 replaced with threonine and lysine 37 with alanine; SEQ ID NO: 12 (protein, Synthetic TM2 K33TK37A) MSDVQSSLTGTWYNELNSKMELTANKDGTLTGTYLSAVGDVYVPYPLSGRYNLQPPAGQGVALGWAVSWENSKIHSATTWSGQFFSESSPVILTQWLLSSSTARGDVWESTLVGNDSFTKTAPTEQQIAHAQLHCRAPRLK | 6.2 |  |  |  |  |  |  |
| TM2 K141E: TM2 mutant in which lysine at position 141 was replaced with glutamic acid; SEQ ID NO: 10 (protein, Synthetic TM2 K141E) MSDVQSSLTGTWYNELNSKMELTANKDGTLTGKYLSKVGDVYVPYPLSGRYNLQPPAGQGVALGWAVSWENSKIHSATTWSGQFFSESSPVILTQWLLSSSTARGDVWESTLVGNDSFTKTAPTEQQIAHAQLHCRAPRLE | 6.6 to 7.2 | 40 | significantly low | about 60% | 58 |  |  |
| TM2 K73Q: TM2 mutant in which lysine at position 73 was replaced with glutamine; SEQ ID NO: 6 (protein, Synthetic TM2 K73Q) MSDVQSSLTGTWYNELNSKMELTANKDGTLTGKYLSKVGDVYVPYPLSGRYNLQPPAGQGVALGWAVSWENSQIHSATTWSGQFFSESSPVILTQWLLSSSTARGDVWESTLVGNDSFTKTAPTEQQIAHAQLHCRAPRLK | 7.7 | 40 | significantly low | about 60% | 55 |  |  |
| TM2 R104E: TM2 mutant in which arginine at position 104 was replaced with glutamic acid; SEQ ID NO: 8 (protein, Synthetic TM2 R104E) MSDVQSSLTGTWYNELNSKMELTANKDGTLTGKYLSKVGDVYVPYPLSGRYNLQPPAGQGVALGWAVSWENSKIHSATTWSGQFFSESSPVILTQWLLSSSTAEGDVWESTLVGNDSFTKTAPTEQQIAHAQLHCRAPRLK | 7.0 to 7.5 | 10 |  |  | 90 |  |  |
| TM2 K19T: TM2 mutant in which lysine at position 19 is replaced with threonine; SEQ ID NO: 18 (protein, Synthetic TM2 K19T) MSDVQSSLTGTWYNELNSTMELTANKDGTLTGKYLSKVGDVYVPYPLSGRYNLQPPAGQGVALGWAVSWENSKIHSATTWSGQFFSESSPVILTQWLLSSSTARGDVWESTLVGNDSFTKTAPTEQQIAHAQLHCRAPRLK | 6.6 to 7.5 |  |  |  |  |  |  |
